Measurements from US20230279137A1 (EVOTEC INTERNATIONAL, published 2023).

T1: human IFNλ receptor on HEK-Blue IFN-λ cells (human, UniProt Q8IU57 21-520; Q08334 20-325)
T1 sequence (looked up) 1: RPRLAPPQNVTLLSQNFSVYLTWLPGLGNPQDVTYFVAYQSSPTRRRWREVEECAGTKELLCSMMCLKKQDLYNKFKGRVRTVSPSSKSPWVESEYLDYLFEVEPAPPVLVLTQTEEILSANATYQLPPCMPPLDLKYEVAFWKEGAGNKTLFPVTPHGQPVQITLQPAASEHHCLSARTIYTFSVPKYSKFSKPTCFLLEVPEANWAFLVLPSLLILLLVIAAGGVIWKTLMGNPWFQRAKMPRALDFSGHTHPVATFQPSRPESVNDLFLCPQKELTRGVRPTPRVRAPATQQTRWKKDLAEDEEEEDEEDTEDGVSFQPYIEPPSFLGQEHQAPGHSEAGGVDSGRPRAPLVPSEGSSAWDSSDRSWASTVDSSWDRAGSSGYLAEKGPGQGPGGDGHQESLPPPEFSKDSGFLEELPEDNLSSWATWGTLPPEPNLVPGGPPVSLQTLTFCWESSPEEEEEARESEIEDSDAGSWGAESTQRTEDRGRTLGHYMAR
T1 sequence (looked up) 2: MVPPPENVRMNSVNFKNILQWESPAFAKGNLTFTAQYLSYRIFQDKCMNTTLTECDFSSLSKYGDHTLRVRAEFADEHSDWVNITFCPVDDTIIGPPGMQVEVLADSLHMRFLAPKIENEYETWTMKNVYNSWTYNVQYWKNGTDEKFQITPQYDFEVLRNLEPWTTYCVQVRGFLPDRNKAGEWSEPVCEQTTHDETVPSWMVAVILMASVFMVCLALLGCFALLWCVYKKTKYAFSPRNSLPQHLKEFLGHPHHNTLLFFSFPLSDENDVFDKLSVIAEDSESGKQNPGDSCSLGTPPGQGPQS

T2: human IFNγ receptor on HEK-Blue IFN-γ cells (human, UniProt P15260 18-489; P38484 22-337)
T2 sequence (looked up) 1: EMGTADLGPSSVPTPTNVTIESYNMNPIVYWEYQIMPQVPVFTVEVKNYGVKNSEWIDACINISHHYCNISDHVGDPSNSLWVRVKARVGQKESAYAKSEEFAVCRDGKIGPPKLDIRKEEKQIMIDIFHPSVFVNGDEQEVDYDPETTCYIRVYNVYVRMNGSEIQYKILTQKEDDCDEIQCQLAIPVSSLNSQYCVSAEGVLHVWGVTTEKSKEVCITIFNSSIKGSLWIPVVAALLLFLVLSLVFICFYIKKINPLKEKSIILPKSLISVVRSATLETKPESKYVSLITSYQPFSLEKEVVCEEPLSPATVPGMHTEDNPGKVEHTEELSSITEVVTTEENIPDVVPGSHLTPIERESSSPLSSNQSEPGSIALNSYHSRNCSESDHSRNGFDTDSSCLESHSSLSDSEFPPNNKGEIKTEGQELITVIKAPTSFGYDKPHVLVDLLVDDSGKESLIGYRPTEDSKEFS
T2 sequence (looked up) 2: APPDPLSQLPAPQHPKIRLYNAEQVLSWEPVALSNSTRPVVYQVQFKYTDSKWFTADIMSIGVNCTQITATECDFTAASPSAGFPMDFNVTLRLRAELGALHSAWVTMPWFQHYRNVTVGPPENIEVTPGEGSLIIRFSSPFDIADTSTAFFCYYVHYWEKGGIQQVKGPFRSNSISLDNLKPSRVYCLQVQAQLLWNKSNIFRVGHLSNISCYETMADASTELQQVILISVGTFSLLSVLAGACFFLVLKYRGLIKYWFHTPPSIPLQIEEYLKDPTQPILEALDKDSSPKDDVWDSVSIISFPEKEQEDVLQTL

T3: human type I IFN receptor on HEK-Blue IFN-α/β cells (human, UniProt P17181 28-557; P48551 27-515)
T3 sequence (looked up) 1: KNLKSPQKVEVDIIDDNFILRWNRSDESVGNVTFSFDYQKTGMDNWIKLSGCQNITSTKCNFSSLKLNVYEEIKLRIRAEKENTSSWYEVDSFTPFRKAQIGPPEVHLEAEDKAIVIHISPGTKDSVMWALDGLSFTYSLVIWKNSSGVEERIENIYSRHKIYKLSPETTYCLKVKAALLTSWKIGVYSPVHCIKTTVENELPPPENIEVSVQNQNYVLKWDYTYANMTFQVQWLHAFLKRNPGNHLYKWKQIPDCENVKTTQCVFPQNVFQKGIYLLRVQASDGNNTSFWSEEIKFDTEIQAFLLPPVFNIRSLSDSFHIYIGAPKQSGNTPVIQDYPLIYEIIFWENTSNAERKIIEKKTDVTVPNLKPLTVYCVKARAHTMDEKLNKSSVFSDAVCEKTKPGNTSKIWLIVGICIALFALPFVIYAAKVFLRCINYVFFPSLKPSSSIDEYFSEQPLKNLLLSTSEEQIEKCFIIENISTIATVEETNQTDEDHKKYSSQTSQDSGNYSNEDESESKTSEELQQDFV
T3 sequence (looked up) 2: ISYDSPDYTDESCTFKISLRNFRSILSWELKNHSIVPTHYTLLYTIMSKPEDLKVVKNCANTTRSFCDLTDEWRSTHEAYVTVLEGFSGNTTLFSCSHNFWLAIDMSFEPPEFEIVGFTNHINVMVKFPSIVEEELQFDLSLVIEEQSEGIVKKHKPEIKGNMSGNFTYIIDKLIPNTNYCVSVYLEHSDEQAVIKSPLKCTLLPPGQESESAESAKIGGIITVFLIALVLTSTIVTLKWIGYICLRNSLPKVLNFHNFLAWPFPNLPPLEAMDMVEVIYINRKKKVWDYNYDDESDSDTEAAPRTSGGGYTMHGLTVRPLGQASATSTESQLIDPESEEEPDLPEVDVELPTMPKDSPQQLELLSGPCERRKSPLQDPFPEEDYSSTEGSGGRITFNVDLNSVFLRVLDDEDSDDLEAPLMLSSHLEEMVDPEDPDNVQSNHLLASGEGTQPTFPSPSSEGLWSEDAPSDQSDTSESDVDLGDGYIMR


Assays:
Assay in all cases: cell-based or functional assay
[1] = molecular target: human CD40 (human, UniProt P25942 21-277)
human CD40, sequence (P25942 21-277): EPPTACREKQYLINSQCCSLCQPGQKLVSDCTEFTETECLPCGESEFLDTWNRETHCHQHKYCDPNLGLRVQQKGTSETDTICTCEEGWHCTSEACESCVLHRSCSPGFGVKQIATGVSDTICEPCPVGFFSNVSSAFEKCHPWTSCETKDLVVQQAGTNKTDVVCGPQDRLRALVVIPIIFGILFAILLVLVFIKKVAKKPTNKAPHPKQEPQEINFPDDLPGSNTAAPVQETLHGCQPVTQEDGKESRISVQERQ

[2] = molecular target: T1, human IFNλ receptor on HEK-Blue IFN-λ …
[3] = molecular target: T2, human IFNγ receptor on HEK-Blue IFN-γ …
[4] = molecular target: T2, human IFNγ receptor on HEK-Blue IFN-γ …; remark: listed apart in the source
[5] = molecular target: T3, human type I IFN receptor on HEK-Blue …

Row | Binder | CD40 EC50 (ng/mL), NFκB-SEAP reporter in HEK-Blue CD40L cells [1] [ng/mL] | IFNλ EC50 (ng/mL), reporter in HEK-Blue IFNλ cells [2] [ng/mL] | IFNγ EC50 (ng/mL), reporter in HEK-Blue IFNγ cells [3] [ng/mL] | IFNγ activity EC50, reporter in HEK-Blue IFNγ cells [4] [ng/mL] | IFNε EC50 (ng/mL), SEAP reporter in HEK-Blue hIFN-α/β cells [5] [ng/mL]
1 | IFA42 (antibody, human IgG2, kappa) light: DIQMTQSPSSVSASVGDRVTITCRASQGIYSWLAWYQQKPGKAPNLLIYTASTLQSGVPSRFSGSGSGTDFTLTISSLQPEDFATYYCQQANIFPLTFGGGTKVEIKRTVAAPSVFIFPPSDEQLKSGTASVVCLLNNFYPREAKVQWKVDNALQSGNSQESVTEQDSKDSTYSLSSTLTLSKADYEKHKVYACEVTHQGLSSPVTKSFNRGECGGGGSGGGGSGGGGSGGGGSQDPYVKEAENLKKYFNAGHSDVADNGTLFLGILKNWKEESDRKIMQSQIVSFYFKLFKNFKDDQSIQKSVETIKEDMNVKFFNSNKKKRDDFEKLTNYSVTDLNVQRKAIHELIQVMAELSPAAKTGKRKRSQMLFRGRRASQ heavy: not shown | 65.6 | – | 15.4 | – | –
2 | IFA43 (antibody, human IgG2, kappa) heavy: not shown light: DIQMTQSPSSVSASVGDRVTITCRASQGIYSWLAWYQQKPGKAPNLLIYTASTLQSGVPSRFSGSGSGTDFTLTISSLQPEDFATYYCQQANIFPLTFGGGTKVEIKRTVAAPSVFIFPPSDEQLKSGTASVVCLLNNFYPREAKVQWKVDNALQSGNSQESVTEQDSKDSTYSLSSTLTLSKADYEKHKVYACEVTHQGLSSPVTKSFNRGEC | 50.8 | – | < 0.001 | < 0.01 | –

Next, values leading:

Row | CD40 EC50 (ng/mL), NFκB-SEAP reporter in HEK-Blue CD40L cells [1] [ng/mL] | IFNλ EC50 (ng/mL), reporter in HEK-Blue IFNλ cells [2] [ng/mL] | IFNγ EC50 (ng/mL), reporter in HEK-Blue IFNγ cells [3] [ng/mL] | IFNγ activity EC50, reporter in HEK-Blue IFNγ cells [4] [ng/mL] | IFNε EC50 (ng/mL), SEAP reporter in HEK-Blue hIFN-α/β cells [5] [ng/mL] | Binder
3 | 41.4 | 0.153 | – | – | – | IFA44 (antibody, human IgG2, kappa) light: DIQMTQSPSSVSASVGDRVTITCRASQGIYSWLAWYQQKPGKAPNLLIYTASTLQSGVPSRFSGSGSGTDFTLTISSLQPEDFATYYCQQANIFPLTFGGGTKVEIKRTVAAPSVFIFPPSDEQLKSGTASVVCLLNNFYPREAKVQWKVDNALQSGNSQESVTEQDSKDSTYSLSSTLTLSKADYEKHKVYACEVTHQGLSSPVTKSFNRGECGGGGSGGGGSGGGGSGGGGSVPVARLHGALPDARGCHIAQFKSLSPQELQAFKRAKDALEESLLLKDCRCHSRLFPRTWDLRQLQVRERPMALEAELALTLKVLEATADTDPALVDVLDQPLHTLHHILSQFRACIQPQPTAGPRTRGRLHHWLYRLQEAPKKESPGCLEASVTFNLFRLLTRDLNCVASGDLCV heavy: not shown
4 | 65.8 | – | – | – | 78.2 | IFA49 (antibody, human IgG2, kappa) heavy: not shown light: DIQMTQSPSSVSASVGDRVTITCRASQGIYSWLAWYQQKPGKAPNLLIYTASTLQSGVPSRFSGSGSGTDFTLTISSLQPEDFATYYCQQANIFPLTFGGGTKVEIKRTVAAPSVFIFPPSDEQLKSGTASVVCLLNNFYPREAKVQWKVDNALQSGNSQESVTEQDSKDSTYSLSSTLTLSKADYEKHKVYACEVTHQGLSSPVTKSFNRGEC
5 | 25.8 | < 0.001 | – | – | – | IFA45 (antibody, human IgG2, kappa) heavy: not shown light: DIQMTQSPSSVSASVGDRVTITCRASQGIYSWLAWYQQKPGKAPNLLIYTASTLQSGVPSRFSGSGSGTDFTLTISSLQPEDFATYYCQQANIFPLTFGGGTKVEIKRTVAAPSVFIFPPSDEQLKSGTASVVCLLNNFYPREAKVQWKVDNALQSGNSQESVTEQDSKDSTYSLSSTLTLSKADYEKHKVYACEVTHQGLSSPVTKSFNRGEC
